{
  "source": "patent US20240350630A1",
  "binders": {"B1": {"name": "L15 scFv-Fc (Fc fusion, not shown: a dimerising Fc or GST; small tags and cut ends)", "scFv": "EVQLVESGGGLVKPGGSLRLSCAASGFTFSSYSMNWVRQAPGKGLEWVSSISGQSNYIYYADSVKGRFTISRDNAKNSLYLQMNSLRAEDTAVYYCARGGNYFVEYFQYWGQGTLVTVSSGSGGGGSGGGGSGGGGSGGGGSEIVLTQSPGTLSLSPGERATLSCRASQYISSNNLAWYQQKPGQAPRLLIYGASNRATGIPDRFSGSGSGTDFTLTISRLEPEDFAVYYCQQYADSPITFGQGTKLEIK"}, "B2": {"name": "15B2 (protein, part only; not given: hinge, transmembrane and signalling domains, part only)", "CAR chain, part": "EVQLVESGGGLVKPGGSLRLSCAASGFTFRSYSMNWVRQAPGKGLEWVSSISGSSNYIYYADSVKGRFTISRDNAKNSLYLQMNSLRAEDTAVYYCARGGNYYVEYFQYWGQGTLVTVSSGGGGSGGGGSGGGGSGGGGSEIVLTQSPGTLSLSPGERATLSCRASQYISSNYLAWYQQKPGQAPRLLIYGASNRATGIPDRFSGSGSGTDFTLTISRLEPEDFAVYYCQQYGSSPITFGQGTKLEIK"}, "B3": {"name": "7A8.11 scFv-Fc (Fc fusion, not shown: a dimerising Fc or GST; small tags and cut ends)", "scFv": "EVQLVESGGGLVQPGGSLRLSCEASGFTFSSFWMNWVRQAPGKGLEWVANIKEDGSEKYYVDSVKGRFTISRDNAKNSLYLQMNSLRVEDTAVYYCARALDYYGMDVWGQGTTVTVSSGGGGSGGGGSGGGGSGGGGSYIVMTQTPLSLPVTPGEPASISCRSSQSLLDSDDGNTYLDWYLQKPGQSPQLLIYTLSYRASGVPDRFSGSGSGTDFTLKISRVEAEDVGVYYCMQRIEFPSYTFGQGTKLEIK"}},
  "key": {"[1]": {"target": "recombinant human BCMA (Acro Biosystems) (human) (UniProt Q02223)", "assay": "SPR: scFv-Fc captured on an anti-human IgG Fc CM5 chip (sheet: ligand 20nM), recombinant human BCMA as analyte, 1:1 Binding model, 25 C"}, "[2]": {"target": "recombinant human BCMA (Acro Biosystems) (human) (UniProt Q02223)", "assay": "SPR, scFv-Fc captured by anti-human IgG Fc on a CM5 chip, BCMA as analyte, global fit"}, "[3]": {"target": "rBCMA conjugated with AF647 (UniProt Q02223)", "assay": "flow cytometry of primary T cells transduced with the CAR, stained with labelled recombinant BCMA (sheet: rBCMA-APC, APC-A; text: BCMA-AF647 at 1 ug/ml); untransduced T cells (UT) give 0.61 in the same gate"}},
  "data": [
    {"binder": "B1", "values": [
      {"measurement": "Kd", "setting": "[1]", "result": 0.371, "unit": "nM"},
      {"measurement": "koff", "setting": "[1]", "result": 0.000673, "unit": "s⁻¹"},
      {"measurement": "kon", "setting": "[1]", "result": "1.81e+06", "unit": "M⁻¹ s⁻¹"},
      {"measurement": "Kd", "setting": "[2]", "result": 0.37, "unit": "nM"}
    ]},
    {"binder": "B2", "values": [
      {"measurement": "% BCMA CAR+ cells", "setting": "[3]", "result": 99.6, "unit": "%"}
    ]},
    {"binder": "B3", "values": [
      {"measurement": "Kd", "setting": "[1]", "result": 0.355, "unit": "nM"},
      {"measurement": "koff", "setting": "[1]", "result": 0.00486, "unit": "s⁻¹"},
      {"measurement": "kon", "setting": "[1]", "result": "1.37e+07", "unit": "M⁻¹ s⁻¹"},
      {"measurement": "Kd", "setting": "[2]", "result": 0.44, "unit": "nM"}
    ]}
  ]
}
